Experimental data published in paper PMC10354202.

Experiments:
[1] = biological target: (Ig32)2-(R3^IVVI)-(Ig32)2 polyprotein, talin R3 domain with the IVVI mutation; experiment: single-molecule magnetic tweezers; talin R3 polyprotein tethered between glass and bead; vinculin allowed to bind at 8.5 pN for a variable time, then a 40 pN pulse to force dissociation; unbinding times at 40 pN (square-root histogram); PBS with 10 mM ascorbic acid, pH 7.3
[2] = biological target: (Ig32)2-(R3^IVVI)-(Ig32)2 polyprotein, talin R3 domain with the IVVI mutation; experiment: single-molecule magnetic tweezers; talin R3 polyprotein tethered between glass and bead; vinculin in solution (20 nM FLV); constant higher forces (12.5 pN, 15 pN; above ~10 pN), reversible binding and unbinding steps; unbinding rates against force fitted to the Bell-Evans model; PBS with 10 mM ascorbic acid, pH 7.3
[3] = biological target: (Ig32)2-(R3^IVVI)-(Ig32)2 polyprotein, talin R3 domain with the IVVI mutation; experiment: single-molecule magnetic tweezers; talin R3 polyprotein tethered between glass (HaloTag) and streptavidin-coated bead (biotinylated AviTag); vinculin in solution (20 nM FLV); constant low force (~8.5 pN, up to ~9-10 pN); PBS with 10 mM ascorbic acid, pH 7.3; Kd from the paper's kinetic model
[4] = biological target: (Ig32)2-(R3^IVVI)-(Ig32)2 polyprotein, talin R3 domain with the IVVI mutation; experiment: magnetic tweezers; details: parent: est. 9 s, read off a plot
[5] = biological target: actin from rabbit skeletal muscle (rabbit) (UniProt P68135)

Sequence of full-length human vinculin, wild type (P18206 other isoform, or with tags, fused parts or gaps): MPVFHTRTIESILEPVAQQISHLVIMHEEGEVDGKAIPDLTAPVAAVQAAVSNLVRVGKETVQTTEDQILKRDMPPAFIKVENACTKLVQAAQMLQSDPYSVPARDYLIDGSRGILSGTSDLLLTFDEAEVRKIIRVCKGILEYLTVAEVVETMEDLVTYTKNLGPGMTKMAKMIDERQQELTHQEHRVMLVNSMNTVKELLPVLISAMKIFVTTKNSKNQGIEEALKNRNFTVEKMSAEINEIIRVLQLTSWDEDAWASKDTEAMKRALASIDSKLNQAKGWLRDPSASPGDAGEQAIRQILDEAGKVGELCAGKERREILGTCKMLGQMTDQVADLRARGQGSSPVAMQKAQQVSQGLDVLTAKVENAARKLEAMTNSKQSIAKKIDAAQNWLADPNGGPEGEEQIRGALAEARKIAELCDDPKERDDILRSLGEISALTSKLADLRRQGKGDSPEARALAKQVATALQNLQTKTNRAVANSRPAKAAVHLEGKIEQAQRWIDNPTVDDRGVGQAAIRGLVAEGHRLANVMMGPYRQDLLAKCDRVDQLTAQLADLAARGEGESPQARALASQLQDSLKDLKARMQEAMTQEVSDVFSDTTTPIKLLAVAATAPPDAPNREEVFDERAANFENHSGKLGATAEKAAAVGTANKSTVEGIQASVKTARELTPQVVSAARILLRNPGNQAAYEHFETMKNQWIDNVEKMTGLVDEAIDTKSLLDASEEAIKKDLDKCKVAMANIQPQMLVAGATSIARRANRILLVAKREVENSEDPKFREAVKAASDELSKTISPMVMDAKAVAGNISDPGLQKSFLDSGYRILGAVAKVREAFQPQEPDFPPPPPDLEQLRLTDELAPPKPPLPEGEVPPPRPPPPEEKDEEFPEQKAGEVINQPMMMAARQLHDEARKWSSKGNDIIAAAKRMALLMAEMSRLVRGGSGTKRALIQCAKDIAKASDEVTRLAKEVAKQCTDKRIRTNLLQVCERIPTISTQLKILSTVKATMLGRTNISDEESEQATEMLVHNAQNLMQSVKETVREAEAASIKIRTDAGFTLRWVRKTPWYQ

**Q.** For “full-length human vinculin, wild type (from UniProt P18206-2 1-1066) (natural protein)”, which timescale of maturation from the weak to the stable bound state [1] is on record?
**A.** 37 s

**Q.** And the unbinding time at 40 pN, stronger binding mode (t2) [1]?
**A.** 7.4 s

**Q.** And the unbinding time at 40 pN, weak binding mode (t1) [1]?
**A.** 0.4 s

**Q.** And the Kd, forces above ~10 pN [2]?
**A.** 0.005 µM

**Q.** And the k0, intrinsic off-rate (Bell-Evans fit of the unbinding rates, zero force) [2]?
**A.** 0.0066 s⁻¹

**Q.** And the unbinding rate of Fig. 1G extrapolated to ~8.5 pN [2]?
**A.** 0.01 s⁻¹

**Q.** And the Kd, initial bound state, low forces (up to ~9-10 pN) [3]?
**A.** 0.2 nM

**Q.** And the Kd, mature bound state, low forces (up to ~9-10 pN) [3]?
**A.** 4 pM

**Q.** And the timescale of unbinding at ~8.5 pN [3]?
**A.** 1 hour

**Q.** For “full-length human vinculin, wild type (from UniProt P18206-2) T12”, which other: average unbinding time at 40 pN [4] is on record?
**A.** 20 s

**Q.** Which ratio of bundled actin of 5M against that of the 4M variant, TIRF microscopy, no talin-VBS1 [5] does the source give for “full-length human vinculin K944A-R945A-D1013A-E1015A-E986A (5M) (from UniProt P18206-2 1-1066) (natural protein)” here?
**A.** 1.4 fold over 4M
